Molecular target: NiV-RBP ectodomain homotetramer (Nipah virus, Malaysia (deposit 8K3C …, UniProt Q9IH62))
Assay: cryo-EM structure
Settings: both partners purified

Chain of NiV-RBP ectodomain homotetramer (Nipah virus, Malaysia (Q9IH62 whole entry, looked up, the tested form may be a part): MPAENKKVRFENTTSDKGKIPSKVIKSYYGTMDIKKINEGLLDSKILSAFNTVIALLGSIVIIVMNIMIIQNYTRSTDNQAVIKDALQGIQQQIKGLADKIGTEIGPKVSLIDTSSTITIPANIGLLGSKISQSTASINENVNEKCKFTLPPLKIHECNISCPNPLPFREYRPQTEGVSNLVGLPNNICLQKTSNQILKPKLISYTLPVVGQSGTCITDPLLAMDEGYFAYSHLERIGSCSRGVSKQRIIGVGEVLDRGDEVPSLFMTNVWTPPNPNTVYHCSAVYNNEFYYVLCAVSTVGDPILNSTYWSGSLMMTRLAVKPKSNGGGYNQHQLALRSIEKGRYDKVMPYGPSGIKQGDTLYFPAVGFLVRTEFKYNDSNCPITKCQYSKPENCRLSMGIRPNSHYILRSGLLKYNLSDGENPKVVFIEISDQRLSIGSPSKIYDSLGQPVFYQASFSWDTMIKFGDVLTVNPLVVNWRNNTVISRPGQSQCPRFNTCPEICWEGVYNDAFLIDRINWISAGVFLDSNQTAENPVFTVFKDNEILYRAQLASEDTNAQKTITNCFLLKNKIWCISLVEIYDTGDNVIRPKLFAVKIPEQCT

B1: 41-6 Fab fragment (Fab, V domains shown)
VH: EVQLVQSGGGLVQPGGSLRLSCAASGFTVSSNYMSWVRQAPGKGLEWVSAISGSGGSTYYADSVKGRFTISRDNSKNTLYLQMNSLRAEDTAVYYCARDREDIVVVPAPRGYYYYYYMDVWGQGTTVTVSS
VL: QSVVTQPPSVSAAPGQKVTISCSGSSSNIGTNHLSWYQQVPGTAPKLLIYDNNKRPSGIPDRFSGSKSGTSASLAISGLQSEDEADYYCATWDDSLHAWVFGGGTKLTVL
stoichiometry N: 3
